According to patent US20240301068A1 (BEIJING HANMI PHARMACEUTICAL, published 2024):

How the values were obtained:
[1] = target: recombinant human PD-L1 (Sino Biological Inc.) (human, UniProt Q9NZQ7 19-239); test: SPR, Biacore X100
Protocol: This instrument utilizes optical surface plasmon resonance technology to detect the association and dissociation between the molecules coated on the biochip and the molecules to be tested. Association constants and dissociation constants were analyzed and calculated by Biacore X100 evaluation software. […]

[2] = target: T1, recombinant human PD-L2 (Sino Biological Inc.) (human, UniProt Q9BQ51 20-219); test: ELISA, plate coated with 1 ug/mL recombinant human PD-L2 (printed B7-DC), anti-human IgG-HRP, OD450; antibody concentration not shown
T1 sequence (looked up): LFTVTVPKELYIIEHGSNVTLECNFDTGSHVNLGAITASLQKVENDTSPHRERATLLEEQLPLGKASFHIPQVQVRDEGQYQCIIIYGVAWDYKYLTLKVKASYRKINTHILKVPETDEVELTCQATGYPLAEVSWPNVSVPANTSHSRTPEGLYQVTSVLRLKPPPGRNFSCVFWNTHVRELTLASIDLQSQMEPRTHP
Protocol: The plate was washed 5 times with PBST, and then blocked using PBST with 1% BSA, 300 μL/well, and incubated at 25° C. for 1 hour, and then washed 5 times with PBST. […] The horseradish peroxidase-labeled anti-human IgG antibody (Chemicon, catalog number AP309P) diluted 1:10000 in PBST with 1% BSA was then added, 100 μL per well, and incubated at 25° C. for 1 hour. The plate was washed 5 times with PBST. The colorimetric substrate TMB was added, 100 μL/well, and developed at room temperature for 10 minutes. 1M H₂SO₄ was added, 100 μL/well, to stop the development. The absorbance at 450 nm was read on a microplate reader.

recombinant human PD-L1 (Sino Biological Inc.), sequence (Q9NZQ7 19-239 limits assumed): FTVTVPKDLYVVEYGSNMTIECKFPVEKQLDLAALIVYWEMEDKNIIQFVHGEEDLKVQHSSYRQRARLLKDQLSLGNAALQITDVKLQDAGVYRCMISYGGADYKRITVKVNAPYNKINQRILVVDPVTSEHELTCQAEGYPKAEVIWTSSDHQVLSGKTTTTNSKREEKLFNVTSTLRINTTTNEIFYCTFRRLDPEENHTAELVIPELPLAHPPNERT

B1: chimeric anti-human PD-L1 monoclonal antibody (antibody, human IgG1, kappa, V domains shown)
VH: EVQLQQSGAELVKPGASVKLSCTASGFNIEDTYIHWVMQRPEQGLEWIGRIDPANGNTKYDPKFQGKATITADTSSNTAYLQLSSLTSEDTAVYYCGRGLGAWFAYWGQGTLVTVSA
VL: DIVMTQSHKVMSTSVGDRVTITCKASQDVHTAVAWIHQKPGQSPKLLIYSASNRYTGVPDRFTGSGSGTDFTFTISSVQAEDLAVYYCQQHYITPLTFGAGTTLELKR
notes: expressed in ExpiCHO cells; also called Chimeric mAb; Chimeric antibody
- Kd [1]: 0.63 nM
- koff [1]: 0.000596 s⁻¹
- kon [1]: 946000 M⁻¹ s⁻¹
- binding result [2]: no binding
